Assay: yeast display, Sf9 membrane polyspecificity reagent, FACS + sequencing; frameworks hold sequencing errors
In short: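 After 36–48 hours of galactose induction, yeast (Saccharomyces cerevisiae BJ5465) displaying a synthetic nanobody library were stained at 4 °C for 1 hour with 10% biotinylated, detergent-solubilized Sf9 membrane reagent. Streptavidin microbeads enriched the stained cells before FACS sorting into low and high (top ~1%) gates on anti-HA and streptavidin fluorescence. Each clone's polyreactivity label reflects its gate of origin.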

Sequence	polyreactivity (PSR sort gate)
QVQLVESGGGLVQAGGSLRLSCAASGRTIRHNAMGWYRQAPGKERELVAAISRSGGSTYYADSVKGRFTISRDYAKNTVYLQMNSLKPEDTAVYYCAAGYHIIYTPEYYYWGQGTQVTVSS	high polyreactivity
QVQLVESGGGLVQAGGSLRLSCAASGFTFNKYDMGWYRQAPGKERELVAVITWSGGSTYYADSVKGRFTISRDNAKNTVYLQMKSLKPEDTAVYYCNAEAPRYTYGRMDYWGQGTQVTVSS	low polyreactivity
QVQLVESGGGLVKAGGSLRLSCAASGLTFTRYTMGWYRQAPGKERELVAAITSSGGSTYYADSVKGRFTISRDNAKNTVYLQRNSVKPEDTAVYYCAAPYPGTRGDGYWGLGTQVTVSS	high polyreactivity
QVQIVESGGGLVQAGGSLRLSCADSGIIFYYNAMGWYRQAPGKERELVAAIDDRGDSTYYADSVKGRFTISRDNAKNTVYLQMNSMKPEDTAVYYCAARDRYLYFDAMDYWGQGTLVTVSS	low polyreactivity
QVQLVESGGGLVQAGGSLRLSCAASGFTFYQYAMGWYRQAPGKERELVAAITWNGGSTYYADSVKGRFTISRDNAKNTVYLQMNSLKPEDTAVYYCAAESPSKFDYDYWGQGTQVTVSS	high polyreactivity
QVQLVESGGGLVQAGGSLRLSCAASGFTFRKNAMGWYRQAPGKERELVAAISSGTSTYYADSVKGRFTISRDNAKNTVYLQMNSLKPEDTAVYYCNAVSRKVYPGPMDYWGQGTQVTVSS	high polyreactivity
QDQLVESGGGLVQAGGSLRLSCAASGFTFYYNAMVLYRQAPGKERELVASISSNGTSTYYADSVKGRFTISLDNEKNTVYLHMNILKPEDTAVHYCNVDIFDPRTYVYWGQGTQVTVSS	low polyreactivity
QVQLVESGLGLVQAGGSLRLSCAASGFIFGSYAMGWYRQAPGKERELVAAISWSGGGTYYADSVKGRFTISRDNAKNTVYLQMNSLKPEDTAVYYCNARQFSGLGYWGQGTQVTVSS	high polyreactivity
QVQLVESGGGLVQAGGSLRLSCAASGRIFIGYAMGWYRQAPGKERELVAAISRSGGSTYYADSVKGRFTISRDNAKYTVYLQMNSLKPEDTAVYYCAASPPFGYYYWGQGTQVTVSS	high polyreactivity
QVQLVESGGGLVQAGGSLRLSCAASGSTFLSNAMGWYRQAPGKERELVAAITTSGTSTFYADSVKGRFTISRDNAKNTVYLQMNSLKPEDTAVYCAKDYLPYLHFVAPSTGDYDYWGQGTQVTVSS	low polyreactivity
QVQLVESGGGLVQAGGSLPLSCAASGRTFRRYAMGWYRQAPGKETELVAAISWGAGSTRYADSVKGRFTISRDNAKNTVYLQLNSLKPEDTAVYYCAAENTRAYGMYYWGQGTQVTVSS	high polyreactivity
QVQLVESGGGLVKAGGSLRLSCAASGSTFYSYVMGWYRQAPGKERELFAAISRRGGSTYYADSVKWRFTISSDNAKNTVYLQMNSLKPEDTAVYYCAASAPVAGYKYRYDYWGQGTQVTVSS	high polyreactivity
QVQLVESGGGLVQAGGSLRLSCAASGSIFRRYAMGWYRQAPGKESELVAAITWGGGRTYYADSVKGRFTISRDNAKNTVYLQMNSLKPEDTAVYYCNAERSVYASGKSYLYDYWGQGTQVTVSS	high polyreactivity
QVQLVESGGGLVQAGGSLRLSCAASGYIFVRNAMGWYRQAPGKEREFVAAISGSGGSTYYADSVKGRFTISRDNAKNTVYFQMNSMKPEDTAVYYCAADYATVTWRGIAYDYWGQGTQVTVSS	low polyreactivity
QVQLVESGGGLVQAGGSLRLSCAASGIIFLFYAMGWYSQAPGKERELVGSITWSGGSTYYADSVKGRFTISRDTAKNTVYLQMNRLKPEDTAVYYCAASVKIISYLGQSEFLGGELDYWGQGTQVTVSS	low polyreactivity
QVQLVESGGGLVQAGGSLRLSCAASGSIYYQYAMGWYRQAPGKERELVAAITYGGGSTYYADSVKGRFTISRDNAKNTVYLQMISLKPEDTAVYYCAKDLYHTVGRYDYWGQGTQVTVSS	low polyreactivity
QVQLVESGGCLVQAGGSLRLSSAASGRTFRYYAMGSYRQAPGKERELVAAITVTVTSTFYADSVKGRFTISRDNAKNTVYLQMNSLKPEDTAVYYCAVPGATSYFPDDSWGQGTQVTVSS	low polyreactivity
QVQLVESGGGIVQAGGSLRLSSAATGRIYAKNAMGWYRQAPGKERELVAAINHSVGSTYYADSVKARFTISRDNANNTVYLQMISLIQEDTAVYYCATLQGDSSSQYDYWGQGTQVTVSS	high polyreactivity
QVQLVESGGGIVQAGGSLRLSCAASGITLINYAMGWYRQAPGKERELVAAISTSGSSTYYADSVKGRFTISRDNAKNTVYLQMNSLKPEDTAVYYCAAELDVYSLFGYWGQGTQVTVSS	low polyreactivity
QVQLVESGGGLVQAGGSLRLSCAASGFIFNRNAMGWYRQAPGKEREFVAAISTRGAGTYYADSVKGRFTISRDNAKNTVYLQMNSLKPEDTAVYYCAADKFRYGYYNRYSKVGYDYWGQGTQVTVSS	high polyreactivity
QVQLVESGGGLVQAGGSLRLSCAASGRTFYLYAMGWYRQAPGKERELVAAITWRGGSTYYADSVKGRFTISRDNAKNTVYLQMNSLKPEDTAVYYCAAVTFFYYSAVRYEYYYWGQGTQVTVSS	high polyreactivity
QVQLVESGGGLVPAGGSLRLSCAASGIIFGTYAMGWYRQEPGKERELVAAIRRTGTGTYYADSVKGRFTISRDNAKNTVYLQMNSLKPEDTAVYYCNVVRSYAYDYWGQGTQVTVSS	high polyreactivity

Sequence	polyreactivity (PSR sort gate)
QVQLVESGGGLVQAGGSLRLSCAASGFTFSWYAMGWYRQAPGKERELVAAINADGGTTYYADSVKGRFTISRDNAKNTVYLQMHSLKPEDTAVYYFAAELSVDKYDYWGQGTQVSVSS	low polyreactivity
QVHLVESGGGLVQAGGSLRLSCAASGSIFRGYAMGWSRQAPGKERELVAAITSGGSTNYADSVNGRFTISRDNANNTVYLQMNSLKPEDTAVYYCNTVRWGRRTTFYYWGQGTQVTVSS	low polyreactivity
QVQLVESGGGLVQAGGSLRLSCAASGRIFYSNAMGWYRQAHGKERELVAAITGSGGRTHYADSVKGRFTISRDNAKNSVYLQMNSLKPEDTAVYYCAKDGYFPEFDYWGQGTQVTVSS	high polyreactivity
QVQLVESGGGLVQAGGSLRLSCAASGLALGWYRQAPGKERELVAVITSDGRTYYADSVKGRFTISRDNAKNTVYLQLNSLKPEDTAVYYCARDSRTIRYYAWFYPFRYDYWGQGTQVTVSS	low polyreactivity
QVQLVESGGGLVQAGGSLRLSCAASGSTFGGNAMGWYRQAPGKERELVAAIDSGGSTYADSVKGRFTISRDNAKNTVYFQMNSLKPEDTAVYYCAAVWEFVHYWRFDYWGQGTQVTVSS	low polyreactivity
QVHLVESGGGLVQAGGRLRLSCAASGFTLRYYAMGWYRQAPGKESELVATINRSGASTYYADTVKGRFTISRDNAKNTVYLQMNSQKPEDTAVYYCKTATSRAYRYDYWGQGTQVTVSS	low polyreactivity
QVQLVESVGGLVQAGGSLRLSCGSSGSIFPYNAMGWYRQAPGKERELVATISSGGSTNYADSVKGRFTISRDNAKNTFYLQMNSLKPEDTAFYYCAADVIVFYYAPNYCGDIEYGYWGQGTQVTVSS	low polyreactivity
QVQLVESGGGLVQAGGSLRLSCAASGFTIDAYAMGWYRQAPGKERELVAAISDGGNTYYADSVKGRFTISRDNAKNTVYLQMNSLKPEDTAVYYCNVDWYSYWYYTYEKSSEWAMEYWGQGTQVTVSS	low polyreactivity
QVQLVESGRGLVQAGGSLPLRCAASGPTFPFNAMGRYRQAPGKERELVAAISWRDGRTYYADSVKGRFTISRDNAKNTVYLHMNSLKPEDTAVYYCNVVKRRSDWGMDYWGQGTQVSVSS	high polyreactivity
PVQLVESGGGLVQAGGSLRLTCAASGFTLTSNAMGWYRQAPGKERELVAAISKSGGSTHYADSVKGRFTISRDNAKNTVYLQMNSLKAEDTAVYYCATPYHRRFKGGDYWGQGTQVSVSS	high polyreactivity
QVQLVESGGGLVQAGGSLRLSCAASGSIFDLYAMGWYRQAPGKERELVASIRYSGGRTYYADSVKGRFTISRDNAKNTVYLQMNSLKPEDTAVYYCNRDGGYTFIMDYWGQGTQVTVSS	low polyreactivity
QVQLVESGGGLVQAGGSLRLSWAASGSTFVHNAMGWYIQAPGKERELVAGISRTGGSTYYADSVKGRFTISRDNAKNTVYLQMNSLKPEDTAVYYCAVRYPRSWQFDYWGQGTQVNVSS	high polyreactivity
QVQLVESGGGLVQAGGSLRLSCAASGRIFLGYAMGWYRQAPGKERELVARITLIGGGTNYADSVKGRFTISRDNAKNTVYLQMNSLKPEDTAVYYCAAKSPLRPWWVGAVSGNYWGQGTQVTVSS	low polyreactivity
QVQLVESGGGLVQAGGSLRLSCAASGRTFRYYAMGWYRQAPGKERELVAAISWNGANTYYADSVKGRFTISRDNAKNTVYLQMNSLKPEDTAVYYCAANYYRWKGYDYWGQGTQVTVSS	high polyreactivity
QVQLVESGGGLVQAGGSLRLSCAASGIIIKNYSMGWYRQAPGKEREFVAAISYSGTNTYYADSVKGRFTISRDYAKNTVYLQMNSLKPEDTAVYYCARRKTVVYLAGGRRDYYSWGQGTQVTVSS	high polyreactivity
QVQLVESGGGLVQAGGSLRLSCAASGSIFTRNAMGWYRQAPGKERELVADISRRGVSTYYADSVKGRFTISRDNAKNTVYLQMNSLKPEDTAVYYCNKLSSYVVARRTTEYDYWGQGTQVTVSS	high polyreactivity
QVQLVESGGGLVQAGGSLRLSCAASGFIFGGYAMGWYRQAPGNERDLVAAITSSGGDTYYADSVKGRFTISRDNAKNTVYLQMNSLKPEDTAVYYCAKRARRIGDVNMGSWGQGTQVTVSS	low polyreactivity
QVQLVESGGFLVQAGGSLRLSCAASGSTSYNYVMGWYRQAPRKERELVAGITWSDDITYYADSVKGRFSISRDNAKNTVYLQMNSLKPEDTAVYYCAAEDGPLYWRFPDEMDYWGQGTQVTVSS	low polyreactivity
QDQLVESGGGLVQAGGSLRLSCAASGSIFYWYAMGWYRQAPGKERELVAAISKSGGSTYYADSVKGRFTISRDTAKNTVYLQMNSLKPEDTAVYYCAARYLYQGYRFDYWGQGTQVTVSS	high polyreactivity
QDQLVESGGGLVQAGGSLRLSCAASGSTFRWYAMGWYRQAPGKERELVAAIRRIGSRTYADSVKGRFTISRDNAKNTVYLQMNSLKPEDTAVYYCATRYKYTGYDYWGQGTQVTVTS	high polyreactivity
QVQLVESGGGLVQAGGSLRLSCAASGSIFASYAMGWYRQAPGKERELVAAITRGGRTNYADSVKGRFTISRDNAKNTVYLQMNSLKPEDTAVYYCAKQYALVWRGYIYGYWGQGTQVTVSS	high polyreactivity

From the nanobody polyreactivity screen of Harvey et al. (2022)
